Results reported in patent US20240199696A1, “AGENTS FOR MANUFACTURE OF CO-ASSEMBLING PEPTIDES” (University of Florida Research Foundation, Incorporated, priority 2021, published 2024).

T1: mCATCH(-) peptide, Ac-EQEPEPEPEQE-Am
T1 construct: Mutant of CATCH(-) with proline in place of the phenylalanine residues
T1 peptide: Ac-EQEPEPEPEQE-NH2

B1: mCATCH(+) peptide, Ac-QQKPKPKPKQQ-Am (peptide)
peptide: Ac-QQKPKPKPKQQ-NH2
notes: Mutant of CATCH(+) with proline in place of the phenylalanine residues; also called mutant CATCH(4+); mCATCH (4+)
B2: CATCH(+) peptide, Ac-QQKFKFKFKQQ-Am (peptide)
peptide: Ac-QQKFKFKFKQQ-NH2
notes: Synthetic cationic variant of Q11; also called CATCH (4+); CATCH(4+)
B3: CATCH(-) peptide, Ac-EQEFEFEFEQE-Am (peptide)
peptide: Ac-EQEFEFEFEQE-NH2
notes: Synthetic anionic variant of Q11; also called CATCH (6-); CATCH(6-)

Columns and labels:
[1] = target: CATCH(+) peptide, Ac-…-Am; test: fluorescence microscopy of binary mixtures (FIG. 33A: 0.75 µM CATCH(+))
[2] = target: T1, mCATCH(-) peptide, Ac-EQEPEPEPEQE-Am; test: ThT fluorimetry, kinetic analysis
[3] = target: the molecule itself; test: ThT fluorimetry, TEM, circular dichroism and fluorescence microscopy of the peptide alone
[4] = target: T1, mCATCH(-) peptide, Ac-EQEPEPEPEQE-Am; test: ThT fluorimetry, equimolar mixture in 1xPBS
Method: (§1) Thioflavin T (ThT) Assay. A ThT stock solution containing 0.8 mg/mL of thioflavin T (Acros) in 1× phosphate-buffered saline (PBS) (137 mM NaCl, 2.7 mM KCl, 10 mM Na₂HPO₄ and 1.8 mM KH₂PO₄, pH 7.4) was filtered through a 0.22 μm syringe filter (Millex), and further diluted 1:10 with 1×PBS to create a working solution. Peptide samples were mixed with the ThT working solution at a 1:10 (v/v) ratio, added to a black 96-well plate (Corning), and analyzed with a Molecular Devices SpectraMax M3 spectrophotometer (excitation 450, emission 482 nm). All samples were run in triplicate, with the mean and standard deviation of these samples reported.

[5] = target: B1; test: ThT fluorimetry, equimolar mixture in 1xPBS
Method: as §1

## CATCH(-)GFP, recombinant fusion of CATCH(-) and superfolder green fluorescent protein
[1]
  concentration below which only diffuse fluorescence (no microparticles) was observed: < 7.5 µM

## B1
[2]
  binding result: no binding

## B2
[3]
  binding result: no binding
[4]
  binding result: no binding

## B3
[3]
  binding result: no binding
[5]
  binding result: no binding
